According to US7943358B2, “Polymerase enhancing factor (PEF) extracts, PEF protein complexes, isolated PEF protein, and methods for purifying and identifying” (Agilent Technologies, Inc., priority 1997, dated 2011):

Experiment: PPi detection with dATP in place of dUTP
Type: biochemical
Settings: 1 hour at 72° C.
Description: […] The presence of PPi in the reaction mixture was then quantified using Sigma's Enzymatic Determination of Pyrophosphate kit (Sigma Product No. P7275). The kit utilizes a coupled enzyme system whereby two moles of NADH are oxidized to NAD^+ for each mole of PPi present in the reaction mixture. The oxidation of NADH is monitored spectrophotometrically at 340 nm. […] The reactions that contained 1800 ng of PEF produced twice as much PPi as those that contained 900 ng of PEF.

B1: PEF: polymerase enhancing factor complex purified from Pyrococcus furiosus; predominant components P50 and P45 (protein)
chain 1: MLHHVKLIYATKSRKLVGKKIVXXXPGSIAALDVKACEGLIRHGAEVHAVMSEAATKIIHPYAWNLPTGNPVITEITGFIEHVELAGEHENKADLILVCPATANTISKIACGIDDTPVTTVVTTAFPHIPIMIAPAMHETMYRHPIVRENIERLKKLGVEFIGPRIEEGRAKVASIDEIVYRVIKKLHKKTLEGKRVLVTAGATREYIDPIRFITNASSGKMGVALAEEADFRGAVTLIRTKGSVKAFRIRKIKLKVETVEEMLSAIENELRSKKYDVVIMAAAVSDFRPKIKAEGKIKSGRSITIELVPXNPKIIDRIKEIQPNVFLVGFKAETSKEKLIEEGKRQIERAKADLVVGNTLEAFGSEENQVVLIGRDFTKELPKMKKRELAERIWDEIEKXLS
chain 2: MLLPDWKIRKEILIEPFSEESLQPAGYDLRVGREAFVKGKLIDVEKEGKVVIPPREYALILTLERIKLPDDVMGDMKIRSSLAREGVIGSFAWVDPGWDGNLTLMLYNASNEPVELRYGERFVQIAFIRLEGPARNPYRGNYQGSTRLAFSKRKKL
modifications: not fully specified; X: residue not identified in the source
notes: polymerase enhancing factor complex purified from Pyrococcus furiosus; predominant components P50 and P45
  PPi detected with dATP in place of dUTP: No PPi was detected
